Assay results from the DeepSol protein solubility set.

Assay: soluble on expression in E. coli; label from the status in PepcDB or PDB records

Which “soluble on expression in E. coli” value does the source give for “MSLSIALIAPYESLATLCRSICQELDLDVSVHTGSMEDGVRIARNLMAEGVDFFISRGLTAQLIREQCPLPVAELEVSAFDIYLCLEPLLRSGKSIGVVGHSDILRKAKGASAALGFTIDFYATAHPGGMGHIMEAARRQGIAAIAGDAVAARTAERYGMEGVLVQNGADSVTNTLQYAVATYSYLTRQATMAGRLQTVLDRMDGGALLASPDGRMLHCNAAVRAMLEPDQGCTETSMDDLFPQLDWRAVPEGRAETVRELVTVGGSKLAVTVTGTMHDDAMDALICTFHDVRQIEQLEHSFRKSEGHHHHHH” here?
Its value is “soluble”.

For “MSLGPMRDLTWGQINFIHTTDTHGWIGGHLQEPQYSADWGDYISFTKHMRDQADKRGSDLLVIDTGDRIEGNGLYDASTPKGLFQYDIYAEADVDIMSTGNHELYKAYSADMEHNTTVPNYKNSYLASNLDYISFETGDRVPQAPRYKKFKTKNQGLNIVAFGFLFDFTGNANNTVVQPVEDTIKEDWFQEAIHEKPDLFVVIGHVGLRMEEFKVIYTAIRKQNWHIPIAFFGGHAHVRDTVQYDSKALAIASGRYFETIGWMSIDGIKKGGAKDVEAAASPTEGHHHHHH”, which “soluble on expression in E. coli” value is on record?
The value was “soluble”.

For “VKEIIDGFLKFQREAFPKREALFKQLATQQSPRTLFISCSDSRLVPELVTQREPGDLFVIRNAGNIVPSYGPEPGGVSASVEYAVAALRVSDIVICGHSNCGAMTAIASCQCMDHMPAVSHWLRYADSARVVNEARPHSDLPSKAAAMVRENVIAQLANLQTHPSVRLALEEGRIALHGWVYDIESGSIAAFDGATRQFVPLAANPRVCAIPLRQPTAA”, which “soluble on expression in E. coli” value is on record?
The value was “soluble”.

With “GMARRDISGAVDFAYLEGFAAGDFAVVDEVLALFREQAALWAPMLDPTHPGWKDAVHTVKGAARGVGAFNLGEVCERCEAGQESLEGVRTALDAALLDIAAYAHEQALRSLKG” as the sequence, how does the “soluble on expression in E. coli” value read?
Its value is “soluble”.

For “MGSDKIHHHHHHMPQSDIFGKAYHEATKHSYLSVQLDPNYLDASTQPSAFKFYPKFYRRVKLNLDNPIHSFIWLTSAVTFEKVYNNVAYKLRVNPSAGALYPTEMYVQIRGMPKIVDGIYHLEVENNCLTLIYELIDDGLESYVIPTKCITGFIFLISSVYYRSSWKYKQRSLRYCLLDSGHHLGAVAASAYLHSRDIQLIFDFDKLALNTDLGFENKEFITGCAISGEIHEKQIRKLRLKVPFVCGTDYFEANQFIEDSYQATSVQPSHQQQLQQPCFDFEQDKFYQTVWNRRSIRRFRKEFISQEHYLYVLQLLQQPIPTESGEEIEIYSVIHRVEGMKSGLYKGANLVKAGDFSEHTGYLCVNQALARDCAVVLFFVSKYTSYQTAMQIAGFLGQRIYLGSNYVGIQCSGIGAFYDDETQEFLETHKDVLYATAIGT”, which “soluble on expression in E. coli” value is on record?
Its value is “not soluble”.

For “MADEEKVTTEEQALADEWAAALAEAGDASQDDIDALMAQGGATPVAEPSTPRAPMEEFGASPKAPTISGLEGPNLDVILDIPVTISMEVGHTDISIRNLLQLNQGSVIELDRLAGEPLDVLVNGTLIAHGEVVVVNEKFGIRLTDVISPSERIKKLR”, which “soluble on expression in E. coli” value is on record?
Its value is “not soluble”.

For “MGSDKIHHHHHHMSSIYGADLRTVGERIKGERKRLGLSQTAFANLAGVGKTTQINYEKGTRNPDTEYLAALDSAGVDVYYVLTGRKSSGGSSDVQAPVEEPLDGYSPVPMYDIEAAAGAGRLIEHENIESTLYFQTQALSAEGLDPAHLIGAKVRGDSMGSTLQDGDRVIVDCSQRTPDGVFLLRVGEEYRIKRVQRVAGGAWLLISDNHAYEKEMIKPDEMQDVEILGRCRVRIGRVS”, which “soluble on expression in E. coli” value is on record?
The value was “not soluble”.

For “MNGIIVDKEKVHPGMPDVVKDAKIALLDAPLEIKKPEFDTNLRIEDPSMIQKFLAQEENMLREMVDKIKSVGANVVITQKGIDDMAQHYLSRAGIYAVRRVKKSDMDKLAKATGASIVSTIDEISSSDLGTAERVEQVKVGEDYMTFVTGSKNHHHHHH”, which “soluble on expression in E. coli” value is on record?
Its value is “soluble”.

With “MATQTAVTATTVPQGSPSVTGSASQGGILNSARQFFSLAAPKVEKDKEFSFRFLTSPLRSKPAATVNADNFYMYACGSINMP” as the sequence, how does the “soluble on expression in E. coli” value read?
The value was “not soluble”.

With “MTTLYSIQEKYQQLLNLAEQLDPEALKDTLESIEDELETKAENVAFVIKELEGQSLILDVEIKRLSERKNTINNNVKRLKQSLHDAMLVANKQKIKTNLFTLDIRKNPHSVFVEDESKLINYLVEQPKKLDKTKLKDDLKKGIDVPGAVLVQTERLQIK” as the sequence, how does the “soluble on expression in E. coli” value read?
The value was “not soluble”.

For “MGHHHHHHSHMNRLPDDYDPYAVEEPSDEEPALSSSEDEVDVLLHGTPDQKRKLIRECLTGESESSSEDEFEKEMEAELNSTMKTMEDKLSSLGTGSSSGNGKVATAPTRYYDDIYFDSDSEDEDRAVQVTKKKKKKQHKIPTNDELLYDPEKDNRDQAWVDAQRRGYHGLGPQRSREQQPVPNSDAVLNCPACMTTLCLDCQRHESYKTQYRAMFVMNCSINKEEVLRYKASENRKKRRVHKKMRSNQEDAAEKAETDVEEIYHPVMCTECSTEVAVYDKDEVFHFFNVLASHS”, which “soluble on expression in E. coli” value is on record?
Its value is “not soluble”.

For “MGSDKIHHHHHHMIASPEPEYLTPEEYLQLEEASPIKHEYINGYAYAMAGATDAHVTVAGNLFVLLRNHVRGSGCRVYIADMKARIESLNRYYYPDVMVTCDQRDQETPNHKRFPCLIVEVLSNSTEAFDRGDKFVDYQEIETLKEYVLINTKRQRVECFKRGDHGLWILQSYTEQDKIFRLNSVDFEGAIAELYEDVIFEQTTL”, which “soluble on expression in E. coli” value is on record?
The value was “not soluble”.

With “MKVAVLGATGKEGQLLLAEAKRRGMDVTAIVRNASKITDGTPTIEKDVYQLTTEDIQAFDVLISALGFPDVQDFPKSTQHLIEILTNQKTRLFVVGGAGTLYVDPEHTTQLKDTPSFPAEIQPLASAMGEALNLLKEAQNIHWTYISPAAMFDADGPATGHYEVAGEELTTNSQGDSYISYADYAVAMLDEVESNAHPNQRISVYQLEHHHHHH” as the sequence, how does the “soluble on expression in E. coli” value read?
The value was “soluble”.

Which “soluble on expression in E. coli” value does the source give for “MGHHHHHHSHMSAFASSDRAEKSGIALEAQQKIYEKYDKNLAGEILQWVQNVTGQSFDTQGDADNLVKVFQDGSLLCTLANSLKPGSVKKVNTSAMAFKKMENISFFLKFAEEYVQKSELFQTVDLYEGQDPNAVLICLASLARKSEKNFGRSGLGPKEAQGDRREWTDEQLKAGHNVIGLQMGSNKGATASGLNMGNTRHM” here?
Its value is “soluble”.

With “QQRFLNIATDGRLSPKQKSNFLALEAEACIPYMPISEALREAMSDGVICDMFEGHAPFKPRYVLPDYAKFLSQGSEYLELSPAEDFDDALN” as the sequence, how does the “soluble on expression in E. coli” value read?
The value was “not soluble”.

For “MELKPTAPPIFTGRPFVVAWDVPTQDCGPRLKVPLDLNAFDVQASPNEGFVNQNITIFYRDRLGLYPRFDSAGRSVHGGVPQNVSLWAHRKMLQKRVEHYIRTQESAGLAVIDWEDWRPVWVRNWQDKDVYRRLSRQLVASRHPDWPPDRIVKQAQYEFEFAAQQFMLETLRYVKAVRPRHLWGFYLFPDCYNHDYVQNWESYTGRCPDVEVARNDQLAWLWAESTALFPSVYLDETLASSRHGRNFVSFRVQEALRVARTHHANHALPVYVFTRPTYSRRLTGLSEMDLISTIGESAALGAAGVILWGDAGYTTSTETCQYLKDYLTRLLVPYVVNVSWATQYCSRAQCHGHGRCVRRNPSASTFLHLSTNSFRLVPGHAPGEPQLRPVGELSWADIDHLQTHFRCQCYLGWSGEQCQWDHRQAAGGASEAWAGSHLTSLLALAALAFTWTL”, which “soluble on expression in E. coli” value is on record?
The value was “not soluble”.

With “MAHHHHHHMRKVKKNKQVRNMLKSLTERVDTDDGENEYARLTQTPVVKMNLSKVKLKTSLQSVLVEPYTEKVKDFVAKTNYEISMEKTLLDEIKNANQNMDRIGDVLSARGGKQRKTRDNHHIMGRYFHYLRDKNEDFGLSFFPVYKTFKSNFSHFSDNLNSSLYPHELLEMGSMSSGNFLKNSSKRISFPERGDS” as the sequence, how does the “soluble on expression in E. coli” value read?
The value was “not soluble”.

With “MRRIAIVGGGQAGLPLAFGLLDKGYEVTVVSNRTPDDIRRGKVMSSQCMFDPALQIERELGINGWEADCPPVEGIGFAVPHPEQAGAKAIEWSARLDRPAQSVDQRVKMPAWLEQVQARGGRLLLQDAGIAELEALAQSHDLVILAAGKGEVVKLFERDAARSPFDKPQRALALTYVHGLEPAPDYSRVAFNLIPGVGEYFVFPALTLSGPCDIMVFEGVPGGPLDCWRDVRTPQEHLAASRRFLQTYLPWEADRARNVELTDDKGILAGAFAPTVRKPVMTLPSGRLVFGLGDAVVTNDPITGQGANNATKACKVYLDAILARGEQPYTRDWMEATFEQFWDYAQWVVQWTNSLLTPPPPHILGLLGTAEQAPSLASTIANGFNHPPSYFPWWADAQACEGFIAQHQRTPATATALEHHHHHH” as the sequence, how does the “soluble on expression in E. coli” value read?
Its value is “not soluble”.
